Experiment: yeast display, Sf9 membrane polyspecificity reagent, FACS + sequencing; frameworks hold sequencing errors
Outline: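 Sorting gates, low and high (top ~1%), were placed on anti-HA fluorescence to track expression and on streptavidin fluorescence to track reagent binding. A clone's polyreactivity label is taken from the gate it came out of. The reagent was 10% biotinylated, detergent-solubilized Sf9 membrane, applied for 1 hour at 4 °C to galactose-induced yeast display cells.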

Sequence | polyreactivity (PSR sort gate)
QVQLVESGGGLVQAGGSLRLSCAASGFIFGGYAMGWYRQAPGKERELVAAISSSGGSTYYADSVKGRFTISRDNAKNTVYLQMNSLKPEDTAVYYCAKVGWSRRYYYWGQGTQVTVSS | high polyreactivity
QVQLVESGGGLVQAGGSLRLSCAASGFIFGGYAMGWYRQAPGKERELVAAITWSGGNTYYADSVKGRFTISRDNAKNTVYLQMNSLKPEDTAVYYCAADYWTKYGYWGQGTQVTVSS | low polyreactivity
QVQLVESGGGLVQAGGSLRLSCAASGFIFGKNDMGWYRQAPGKERELVAAITIGGSTNYADSVKGRFTISRDNAKNTVYLQMNSLTPEDTAVYYCGADATSLYNYWGLGTQVTVSS | low polyreactivity
QVQLVESGGGLVQAGGSLRLSCAASGFIFGLYAMGWYRQAPGKEREFVAAISWSGGSTYYADSVKGRFTISRDNAKNTVYLQMNSLKPEDTAVYYCAREYHGDSRRYDYWGQGTQVTVSS | high polyreactivity
QVQLVESGGGLVQAGGSLRLSCAASGFIFGNYAMGWYRQAAGNERELVAAISQRGGTTYYADSVKGRFTISRDNAKNTVYLQMNSLKPEDTAVYYCKAYYIGYYVDYEYWGQGTQVTVSS | high polyreactivity
QVQLVESGGGLVQAGGSLRLSCAASGFIFGPYAMGWYRQAPGKERELVAAISRRGGSTYYADSVKGRFTISRDNAKNTVYLHMNSLKPEDTAVYYCATAGWGEAEGGYWGQGTQVTVSS | high polyreactivity
QVQLVESGGGLVQAGGSLRLSCAASGFIFGRNTMGWYIQAPGKERELVAAITSGGSTNYADSVKGRFTISRDNAKNTVYLQMNSLKPEDTAVYYCAAEVSTYWTLYDYWGQGTQVTVSS | high polyreactivity
QVQLVESGGGLVQAGGSLRLSCAASGFIFGRYAMGWYRQAPGKERELVAAISRSGARTYYADSVKGRFTISRDNAKNTVYLQMNSLKPEDTAVYYCARYQPRVSFDYWGQGTQVTVSS | high polyreactivity
QVQLVESGGGLVQAGGSLRLSCAASGFIFGSNAMGWYRQAPGQERELVAAIDSSGGRTNYADSVKGRFTISRDNAKNTVYLQMNSLKPEDTAVYYCNVYRWSQLFEYDYWGQGTQVTVSS | high polyreactivity
QVQLVESGGGLVQAGGSLRLSCAASGFIFGSNVMGWYRQAPGKERELVAAISRSGGSTYYADSVKGRFTISRDNAKNTVYLQMNSLKPEDTAVYYCNKLAVGRSRTGDYWGQGTQVTVSS | high polyreactivity
QVQLVESGGGLVQAGGSLRLSCAASGFIFGSYAMGWYRQAPGKERELVAAITSDGNTDYADSVKGRFTISRDNAKNTVYLQMNSLKPEDTAVYYCATDWVDHYDYWGQGTQVTVSS | low polyreactivity
QVQLVESGGGLVQAGGSLRLSCAASGFIFGSYAMGWYRQAPGNERELVAAISDSGDSTYYADSVKGRFTISRDNAKNTVSLQLTRLKPEDTAVYYCNRGYRWRRYENYYWGQVTQVTVSS | high polyreactivity
QVQLVESGGGLVQAGGSLRLSCAASGFIFGTYAMGWYRQAPGKERELVAAISQSGGRTYYADSVKGRFTISRDNAKNTVYLQMNSLKPEDTAVYYCAAYRYVRYDYWGQGTQVTVSS | high polyreactivity
QVQLVESGGGLVQAGGSLRLSCAASGFIFGVYAMGWYRQAPGKERELVAAISRSGGSTYYADSVKGRFTISRDNAKNTVYLQMNSLKPEDTAVYYCAVRGSWYSEHNYWGQGTQVTVSS | high polyreactivity
QVQLVESGGGLVQAGGSLRLSCAASGFIFGYNAMGWYRQAPGKERELLAAITWIGGTTYYADSVKGRFTISRDNAKNTVYLQMNSLNPEDTAVYYCARQRSYGRYSYSYVYEYWGQGTLVTVSS | high polyreactivity
QVQLVESGGGLVQAGGSLRLSCAASGFIFGYNAMGWYRQAPGKERELVAAISYSGVSTYYADSVKGRFTISRDNAKNTVYLQMNSLKPEDTAVYYCAARPIGYKPRGEYDYWGQGTQVTVSS | high polyreactivity
QVQLVESGGGLVQAGGSLRLSCAASGFIFGYNAMGWYRQAPGKERELVAAITSRGDRTYYADSVKGRFTISRDNAKNTVYLQMNSLKPEDTAVYYCAKATRGYRSPYGSIGYYYWGQGTQVTVSS | high polyreactivity
QVQLVESGGGLVQAGGSLRLSCAASGFIFGYNAMGWYRQAPGKERELVATISWSGGSTYYADSVKGRFTISRDNAKNTVYFQMNSLKPEDTAVYYCAAEGWERLGCVSWVTVDYWGQGTQVTVSS | low polyreactivity
QVQLVESGGGLVQAGGSLRLSCAASGFIFGYYAMGWYRQAPGKERELVAAISKSGGRTRYADSVKGRFTISRDNAKNTVYLQMNSLKPEDTAVYYCATYDPARSTQGYDYWGQGTQVTVSS | high polyreactivity
QVQLVESGGGLVQAGGSLRLSCAASGFIFGYYAMGWYRQAPGKERELVAVISRGGGSTHYADSVKGRFTISRDNAKNTVYLQMNSLKPEDTAVYYCAAQLGRRSATYYYWGQGTQVTVSS | high polyreactivity
QVQLVESGGGLVQAGGSLRLSCAASGFIFGYYTMGWYRQAPGKERELVAAISSRGGSTYYADSVKGRFTISRDNAKNTVYLQMNSLKPEDTAVYYCAKRSTYTGSWWERGYWGQGTQVTVSS | high polyreactivity

Sequence | polyreactivity (PSR sort gate)
QVQLVESGGGLVQAGGSLRLSCAASGFIFGYYVMGWYRQAPGKERELVAAISGSGGRTYYADSVKGRFTISRDNAKNNVYLQMNSLKPEDTAVYYCNAVAFYRDYNYWGQGTQVTVSS | high polyreactivity
QVQLVESGGGLVQAGGSLRLSCAASGFIFHGYTMGWYRQAPGKERELVAGISFTGGSTYYADSVKGRFTISRDNAKNTVYLQMNSLKPEDTAVYYCAATYSSYWARYYYWGQGTQVTVSS | high polyreactivity
QVQLVESGGGLVQAGGSLRLSCAASGFIFHKYAMGWYRQAPGKERELVARITGSGASTFYADSVKGRFTISRDNAKNTVYLQMNSLKPEDTAVYYCAATIGSLLKYNRHRYYYWGQGTQVTVSS | high polyreactivity
QVQLVESGGGLVQAGGSLRLSCAASGFIFHNYAMGWSRQAPGKERELVAAISWSGSRTYYADSVKGRFTISRDNAKNTVYLQMNSLKPEDTAVYYCNAPGSPVVQQPGYYWGQGTQVTVSS | low polyreactivity
QVQLVESGGGLVQAGGSLRLSCAASGFIFHRYAMGGYRQAPGKERELVASITRSGGSTYYADSVKGRFTISRDNAKNTVYLQMNSLKPEDTAVYYCAAQLPSYYKYPRHDYWGQGTQVTVSS | high polyreactivity
QVQLVESGGGLVQAGGSLRLSCAASGFIFHRYAMGWYRQAPGKERELVAAISRRGGSTYYADSVKGRFTISRDNAKNTVYLQMNSLKPEDTAVYYCARTVGDRTLLESDSWGQGTQVTVSS | high polyreactivity
QVQLVESGGGLVQAGGSLRLSCAASGFIFHVYAMGWYRQAPGKERELVAAISGTGGSTYYADSVKGRFTISRDTALNTVSLQMNSLKPEDTAVYYYKAERSGNGYCGQGTQVTVSS | high polyreactivity
QVQLVESGGGLVQAGGSLRLSCAASGFIFHYNAMGWYRPAPGKERELVAAITSGDSTDYADSVKGRFTISRDNAKNTVYLQMNSLKREDTAVYYCAAAEGYLSKYENDYWGQGTQVTVSS | low polyreactivity
QVQLVESGGGLVQAGGSLRLSCAASGFIFIAYAMGWYRQAPGKERELVAAISKSGTRTYYADSVKGRFTISRDNAKNTVYLQMNSLKPEDTAVYYCATYSTYNKGTHGDYWGQGTQVTVSS | high polyreactivity
QVQLVESGGGLVQAGGSLRLSCAASGFIFIINAMGWYRQAPGKEREFVAAITGSGGSTYYADSVKGRFTISRDNAKNTVYLQMNSLKPEDTAVYYCAKVGPYYSGKVYGRTYYSRYGYWGQGTQVTVSS | low polyreactivity
QVQLVESGGGLVQAGGSLRLSCAASGFIFIRYAMGWYIQAPGKERELVASSTGRGGSTYYADSVKVRFTISRDNAKNTVYLQMNSLKPEDTAVYYCAAYYRYPTGWRWGGYYLYDYWGQGTQVTVSS | high polyreactivity
QVQLVESGGGLVQAGGSLRLSCAASGFIFKANAMGWYRQAPGKERELVASITFGGDSTYYADSVKGRFTISRDNAKNTVYLQMNSLKPEDTAVYYCNTRRRSYRTYYYWGQGTQVTVLS | low polyreactivity
QVQLVESGGGLVQAGGSLRLSCAASGFIFKHYAMGWYRQAPGKERELVAAISRSTGRTNYADSVKGRFTISRDNAKNTDYLQMNSLKPEDTAVYYCAAYRYLRYDYWGQGTQVTVSS | high polyreactivity
QVQLVESGGGLVQAGGSLRLSCAASGFIFKNYAMGWYRQAPGKERELVAAITSSGGNTYYADSVKGRFTISRDNAKNTVYLQMNSLKPEDTAVYYCNARFRTLYWGQGTQVTVSS | high polyreactivity
QVQLVESGGGLVQAGGSLRLSCAASGFIFKRNAMGWYRQATGNERELVAAITKSGVNTYYADSVKGRFTISRDNAKNTVYLQMTSLKPEDTAVYYCAKTLTYGFRRYDYWGQGTQVTVSS | high polyreactivity
QVQLVESGGGLVQAGGSLRLSCAASGFIFKRYAMGWNRQAPGKVRELVAAITSRGGSTYYADSVKGRFTISRDNAKNTVYLQMNSLKPEDTAVYYCNAGTSAGSYDYWGQGTQVTVSS | high polyreactivity
QVQLVESGGGLVQAGGSLRLSCAASGFIFKRYAMGWYRQAPGKERELVATISNSGGRTYYADSVKWRFTISRDNAKNTVYLQMNSLKPEDTAVYYCAALPFWWGGYWGQGTQVTVSS | high polyreactivity
QVQLVESGGGLVQAGGSLRLSCAASGFIFKRYVMGWYRQAPGKERELVAGITRSGSSTSYADSVKGRFTISRDNAKNTVYLQMNSLKPEDTAVYYCAARAWKKLDYWGQGTQVTVSS | high polyreactivity
QVQLVESGGGLVQAGGSLRLSCAASGFIFKVNAMGWYRQAPGKERGYVYADSVKGRFTISRDNAKNTVYLQMNSLKPEHTAVYYCAAEPGEGCDYWGQATQVTVSS | low polyreactivity
QVQLVESGGGLVQAGGSLRLSCAASGFIFKWNAMGWYRQAPGKERELVAAITSGGGTYYADSVKGRFTISRDNAKNTVYLQMNSLKPEDTAVYYCAALGRYWPARRFDYWGQGTQVTVSS | high polyreactivity

Reference: the nanobody polyreactivity screen of Harvey et al. (2022)
